Assay results from the supplement of paper PMC10598134.
± gives the standard deviation.

Test: collision cross section of modified peptide (TIMS, N2, iRT-aligned); higher = larger / more extended gas-phase ion
How it was run: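 Collision cross section was derived from the Mason-Schamp equation. Each value averages 1–3 technical replicates of the most abundant feature per charge state, measured on a timsTOF Pro/HT in dda-PASEF mode (nitrogen, ~2.4 mbar) after a 120-min nanoflow C18 gradient at 60 °C. Synthetic peptide pools (~100 fmol/µL in 2% acetonitrile/0.1% formic acid, iRT standard spiked 1:40) were identified with MaxQuant, and 1/K0 was calibrated with three reference ions and aligned run-wise to the median iRT peptide deviation.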

[1] = charge state: 2, modification: Succinyl
[2] = charge state: 2, modification: Formyl
[3] = charge state: 3, modification: Formyl
[4] = charge state: 2, modification: Methyl (K)
[5] = charge state: 3, modification: Methyl (K)
[6] = charge state: 2, modification: Hydroxyproline
[7] = charge state: 2, modification: HexNAc (ST)
[8] = charge state: 2, modification: Glutarylation
[9] = charge state: 3, modification: Glutarylation
[10] = charge state: 3, modification: HexNAc (ST)
[11] = charge state: 2, modification: Acetyl (K)
[12] = charge state: 2, modification: Malonyl
[13] = charge state: 2, modification: hydroxyisobutyryl
[14] = charge state: 3, modification: hydroxyisobutyryl
[15] = charge state: 3, modification: Hydroxyproline
[16] = charge state: 3, modification: Methyl (R)
[17] = charge state: 3, modification: Succinyl
[18] = charge state: 3, modification: Trimethyl (K)
[19] = charge state: 2, modification: Trimethyl (K)
[20] = charge state: 2, modification: Methyl (R)
[21] = charge state: 2, modification: GlyGly (K)
[22] = charge state: 3, modification: GlyGly (K)
[23] = charge state: 2, modification: Butyryl
[24] = charge state: 3, modification: Butyryl

**Q.** For ASNAAVKLAESK [_ASNAAVK(Succinyl)LAESK_], which collision cross section [1] is on record?
**A.** 372.84 ± 0.87 Å²

**Q.** With “STGLELETPSLVPVKK [_STGLELETPSLVPVK(Formyl)K_]” as the sequence, how does the collision cross section [2] read?
**A.** 431.64 ± 1.2 Å²

**Q.** What about the collision cross section [3] of the same sequence?
**A.** 516.5 ± 3 Å²

**Q.** Which collision cross section [4] does the source give for LLEEEDSKLK [_LLEEEDSK(Methyl (K))LK_] here?
**A.** 382.93 ± 0.7 Å²

**Q.** And the collision cross section [5]?
**A.** 439.97 ± 5.9 Å²

**Q.** Which collision cross section [6] does the source give for “GDAGEPGRPGSPGK [_GDAGEPGRPGSP(Hydroxyproline)GK_]” here?
**A.** 357.84 ± 0.8 Å²

**Q.** For “LPTTAASTPDAVDK [_LPT(HexNAc (ST))TAASTPDAVDK_]”, which collision cross section [7] is on record?
**A.** 413.95 ± 0.62 Å²

**Q.** Which results are given for “ALASIDSKLNQAK [_ALASIDSK(Gluratylation)LNQAK_]”?
**A.** collision cross section [8]: 406.86 ± 0.54 Å²; collision cross section [9]: 470.57 Å²

**Q.** For “YIEIYVQKVNPSR [_YIEIYVQK(Methyl (K))VNPSR_]”, which collision cross section [4] is on record?
**A.** 439.54 ± 1.7 Å²

**Q.** And the collision cross section [5]?
**A.** 505.56 ± 3.7 Å²

**Q.** For ATAVVDGAFK [_AT(HexNAc (ST))AVVDGAFK_], which collision cross section [7] is on record?
**A.** 362.47 ± 0.64 Å²

**Q.** Which collision cross section [7] does the source give for “LSTPPPLAEEEGLASR [_LS(HexNAc (ST))TPPPLAEEEGLASR_]” here?
**A.** 448.88 Å²

**Q.** And the collision cross section [10]?
**A.** 503.24 Å²

**Q.** For “IISSIEQKEENK [_IISSIEQK(Acetyl (K))EENK_]”, which collision cross section [11] is on record?
**A.** 401.35 ± 0.23 Å²

**Q.** Which collision cross section [12] does the source give for IQTKAGEATVK [_IQTK(Malonyl)AGEATVK_] here?
**A.** 364.75 ± 0.62 Å²

**Q.** With “LFVGGIKEDTEEHHLR [_LFVGGIK(Methyl (K))EDTEEHHLR_]” as the sequence, how does the collision cross section [5] read?
**A.** 545.41 Å²

**Q.** For KYEEIDNAPEER [_K(Malonyl)YEEIDNAPEER_], which collision cross section [12] is on record?
**A.** 410.49 ± 0.6 Å²

**Q.** And the collision cross section (charge state: 3, modification: Malonyl)?
**A.** 491.92 ± 5.7 Å²

**Q.** With TPNLYIYSKK [_TPNLYIYSK(Propionyl)K_] as the sequence, how does the collision cross section (charge state: 2, modification: Propionyl) read?
**A.** 384.03 Å²

**Q.** For “SPDEAYAIAKK [_SPDEAYAIAK(hydroxyisobutyryl)K_]”, which collision cross section [13] is on record?
**A.** 377.18 ± 1.4 Å²

**Q.** And the collision cross section [14]?
**A.** 453.4 ± 3.9 Å²

**Q.** With “DKALPLEAEVAPVK [_DK(Formyl)ALPLEAEVAPVK_]” as the sequence, how does the collision cross section [2] read?
**A.** 412.02 ± 0.74 Å²

**Q.** For IHPEGPPLK [_IHP(Hydroxyproline)EGPPLK_], which collision cross section [6] is on record?
**A.** 331.8 ± 0.88 Å²

**Q.** And the collision cross section [15]?
**A.** 438.36 ± 0.43 Å²

**Q.** For “DSRGGGGNFGPGPGSNFR [_DSR(Methyl (R))GGGGNFGPGPGSNFR_]”, which collision cross section [16] is on record?
**A.** 480.39 ± 3.1 Å²

**Q.** Which collision cross section [2] does the source give for GSLEKGSPEDK [_GSLEK(Formyl)GSPEDK_] here?
**A.** 358.29 ± 0.88 Å²

**Q.** With “DYSSGFGGKYGVQADR [_DYSSGFGGK(Methyl (K))YGVQADR_]” as the sequence, how does the collision cross section [4] read?
**A.** 432 Å²

**Q.** And the collision cross section [5]?
**A.** 489.11 ± 2.4 Å²

**Q.** Which collision cross section [3] does the source give for “TQDQISNIKYHEEFEK [_TQDQISNIK(Formyl)YHEEFEK_]” here?
**A.** 551.65 ± 1.7 Å²

**Q.** Which results are given for “ALASIDSKLNQAK [_ALASIDSK(Succinyl)LNQAK_]”?
**A.** collision cross section [1]: 408.18 ± 0.54 Å²; collision cross section [17]: 477.06 Å²

**Q.** With “DAEAAEATAEGALKAEK [_DAEAAEATAEGALK(Succinyl)AEK_]” as the sequence, how does the collision cross section [1] read?
**A.** 437.62 ± 0.51 Å²

**Q.** What about the collision cross section [17] of the same sequence?
**A.** 541.32 ± 2 Å²

**Q.** For GEVQVSDKER [_GEVQVSDK(Methyl (K))ER_], which collision cross section [4] is on record?
**A.** 360.9 ± 0.67 Å²

**Q.** And the collision cross section [5]?
**A.** 436.39 ± 5.2 Å²

**Q.** What does the source list for “HELQANCYEEVKDR [_HELQANCYEEVK(Methyl (K))DR_]”?
**A.** collision cross section [4]: 444.71 Å²; collision cross section [5]: 527.11 ± 0.72 Å²

**Q.** Which collision cross section [18] does the source give for “PANEKATDDYHYEK [_PANEK(Trimethyl (K))ATDDYHYEK_]” here?
**A.** 499.05 Å²

**Q.** With HVSPVTPPR [_HVSPVT(HexNAc (ST))PPR_] as the sequence, how does the collision cross section [7] read?
**A.** 366.95 ± 0.8 Å²

**Q.** Which results are given for DHLSDKESK [_DHLSDK(Trimethyl (K))ESK_]?
**A.** collision cross section [19]: 350.64 ± 1.1 Å²; collision cross section [18]: 401.61 ± 0.025 Å²

**Q.** Which results are given for “LEKDYQPGITFIVVQK [_LEKDYQP(Hydroxyproline)GITFIVVQK_]”?
**A.** collision cross section [6]: 457.03 ± 0.32 Å²; collision cross section [15]: 487.95 ± 1.3 Å²

**Q.** Which collision cross section (charge state: 2, modification: Biotin) does the source give for VETTVTSLKTK [_VETTVTSLK(Biotin)TK_] here?
**A.** 412.03 ± 1.9 Å²

**Q.** With DHLSDKESK [_DHLSDK(Gluratylation)ESK_] as the sequence, how does the collision cross section [8] read?
**A.** 353.36 ± 0.63 Å²

**Q.** And the collision cross section [9]?
**A.** 411.89 Å²

**Q.** For “SDSGKPYYYNSQTK [_SDSGK(Acetyl (K))PYYYNSQTK_]”, which collision cross section [11] is on record?
**A.** 419.63 ± 2 Å²

**Q.** For “SGNLTEDDKHNNAK [_SGNLTEDDK(Acetyl (K))HNNAK_]”, which collision cross section [11] is on record?
**A.** 418.78 ± 2.4 Å²

**Q.** And the collision cross section (charge state: 3, modification: Acetyl (K))?
**A.** 469.35 ± 2.1 Å²

**Q.** For “GGGGGGGGGAPRGR [_GGGGGGGGGAPR(Methyl (R))GR_]”, which collision cross section [20] is on record?
**A.** 346.08 ± 2.1 Å²

**Q.** And the collision cross section [16]?
**A.** 427.42 ± 3.8 Å²

**Q.** Which collision cross section [19] does the source give for LAEEENKAK [_LAEEENK(Trimethyl (K))AK_] here?
**A.** 353.67 ± 0.62 Å²

**Q.** And the collision cross section [18]?
**A.** 413.12 Å²

**Q.** What does the source list for “TLQKQSVVYGGK [_TLQK(Methyl (K))QSVVYGGK_]”?
**A.** collision cross section [4]: 395.77 ± 1.4 Å²; collision cross section [5]: 446.7 ± 4.9 Å²

**Q.** Which results are given for “ALASIDSKLNQAK [_ALASIDSK(GlyGly (K))LNQAK_]”?
**A.** collision cross section [21]: 417.48 ± 0.98 Å²; collision cross section [22]: 469.2 ± 1.3 Å²

**Q.** Which collision cross section [2] does the source give for “DTPTSAGPNSFNKGK [_DTPTSAGPNSFNK(Formyl)GK_]” here?
**A.** 404 ± 0.2 Å²

**Q.** Which collision cross section [8] does the source give for “GEVQVSDKER [_GEVQVSDK(Gluratylation)ER_]” here?
**A.** 368.37 ± 8.3 Å²

**Q.** For “FSAYIKNSNPALNDNLEK [_FSAYIK(hydroxyisobutyryl)NSNPALNDNLEK_]”, which collision cross section [13] is on record?
**A.** 489.27 ± 0.86 Å²

**Q.** And the collision cross section [14]?
**A.** 551.92 ± 1.1 Å²

**Q.** Which results are given for “IISSIEQKEENK [_IISSIEQK(Gluratylation)EENK_]”?
**A.** collision cross section [8]: 411.03 ± 0.6 Å²; collision cross section [9]: 467.18 ± 1.7 Å²

**Q.** With “PGSPGPPGSPGPR [_PGSPGPPGSP(Hydroxyproline)GPR_]” as the sequence, how does the collision cross section [6] read?
**A.** 352.39 ± 1.1 Å²

**Q.** Which collision cross section [21] does the source give for PSVSTKLISK [_PSVSTK(GlyGly (K))LISK_] here?
**A.** 370.29 ± 0.38 Å²

**Q.** What about the collision cross section [22] of the same sequence?
**A.** 434.33 ± 3 Å²

**Q.** For “GADFLVTEVENGGSLGSKK [_GADFLVTEVENGGSLGSK(Gluratylation)K_]”, which collision cross section [8] is on record?
**A.** 481.44 ± 2 Å²

**Q.** What about the collision cross section [9] of the same sequence?
**A.** 556.42 Å²

**Q.** For “TQAYQDQKPGTSGLR [_TQAYQDQK(Butyryl)PGTSGLR_]”, which collision cross section [23] is on record?
**A.** 427.73 ± 0.77 Å²

**Q.** And the collision cross section [24]?
**A.** 479.17 ± 3.5 Å²

**Q.** For GVQYLNEIK [_GVQY(Nitro (Y))LNEIK_], which collision cross section (charge state: 2, modification: Nitro (Y)) is on record?
**A.** 353.34 ± 0.19 Å²

**Q.** Which collision cross section [10] does the source give for “TPLTHALPGLSEQEGQK [_T(HexNAc (ST))PLTHALPGLSEQEGQK_]” here?
**A.** 513.42 ± 0.96 Å²

**Q.** With “VDIDVPDVNIEGPDAKLK [_VDIDVPDVNIEGPDAK(Methyl (K))LK_]” as the sequence, how does the collision cross section [4] read?
**A.** 457.57 ± 0.42 Å²

**Q.** And the collision cross section [5]?
**A.** 489.73 ± 3.2 Å²

**Q.** With “YGRGQLNYPLPDFSK [_YGR(Methyl (R))GQLNYPLPDFSK_]” as the sequence, how does the collision cross section [16] read?
**A.** 496.04 ± 0.79 Å²

**Q.** What does the source list for “LEQVEKELLR [_LEQVEK(Trimethyl (K))ELLR_]”?
**A.** collision cross section [19]: 387.44 ± 0.62 Å²; collision cross section [18]: 446.8 ± 1.8 Å²

**Q.** Which collision cross section [10] does the source give for “KSQAGASELGPFSDPR [_KSQAGASELGPFS(HexNAc (ST))DPR_]” here?
**A.** 503.83 ± 1.1 Å²

**Q.** Which collision cross section [23] does the source give for “DYSSGFGGKYGVQADR [_DYSSGFGGK(Butyryl)YGVQADR_]” here?
**A.** 438.71 ± 1.6 Å²

**Q.** With “VNVEAPDVNLEGLGGKLK [_VNVEAPDVNLEGLGGK(Butyryl)LK_]” as the sequence, how does the collision cross section [23] read?
**A.** 466.95 ± 0.75 Å²

**Q.** What about the collision cross section [24] of the same sequence?
**A.** 548.3 ± 0.14 Å²

**Q.** For PRLPATGTFK [_PR(Methyl (R))LPATGTFK_], which collision cross section [20] is on record?
**A.** 353.59 ± 0.84 Å²

**Q.** And the collision cross section [16]?
**A.** 458.58 ± 3 Å²

**Q.** Which collision cross section (charge state: 2, modification: Crotonyl) does the source give for SLKLNTAEDAK [_SLK(Crotonyl)LNTAEDAK_] here?
**A.** 378.17 ± 0.26 Å²
